Results on one substance are retold here after publication PMC3684277.

The experiment concerns the target HCMV capsid (icosahedral T=16 capsid shell of MCP, mCP, mC-BP and SCP) (human cytomegalovirus strain AD169). Description: co-sedimentation.

The substance “UL32-encoded basic phosphorylated protein pp150 (natural protein)” had a % decrease in chemically treated particles of 5%.
